Columns and labels:
C. elegans [1] = test: Locomotion assay (body bends); assay type: in vivo, Caenorhabditis elegans; details: mtON activation
Experimental: […] One body bend was scored as a deflection of direction of motion of the posterior pharyngeal bulb. For AMPK activation, animals were placed on plates containing 1 mM AICAR 4 h before counting body bends. AICAR was dissolved in M9 buffer, added directly onto OP50 seeded plates, and allowed to dry. Illumination was continuous through measurements (MVX, 0.265 mW/mm^2).

AMPK = test: Immunoblot of phosphorylated AMPK; assay type: in vivo, Caenorhabditis elegans; details: animals removed from food, mtON activation
Experimental: Synchronized young adult animals were exposed to 1 Hz light (Quantum LED, 0.02 mW/mm2) for 4 h, and immediately harvested with ice-cold M9 media and centrifuged at 1,000×g for 1 min. Animals were ground by plastic pestle disruption in lysis buffer (20 mM Tris-HCl, 100 mM NaCl, 1 mM EDTA, 1 mM DTT, 10% glycerol, 0.1% SDS, pH 7.6, 1×Halt™ protease inhibitor cocktail, Thermo78429) and diluted 1:1 in sample loading buffer (100 mM Tris-HCl, 10% v/v glycerol, 10% SDS, 0.2% w/v bromophenol blue, 2% v/v b-mercaptoethanol). These samples were heated at 95° C. for 5 min. Isolated mitochondrial samples were prepared as described above and diluted 1:1 in sample loading buffer with 1% SDS. […] samples were loaded to 7.5% polyacrylamide gels and separated by SDS-PAGE. Proteins were transferred to nitrocellulose membranes and blocked in 5% non-fat milk/TBST (50 mM Tris, 150 mM NaCl, 0.05% Tween 20, pH 8.0) for 1 h at room temperature. Membranes were incubated at 4° C. in primary antibodies diluted 1:1,000 in 5% bovine serum albumin:anti-GFP (ClonTech Living Colours #ab632375), anti-ATP5a (Abcam, #ab14748), 1:60 anti-HSP60 (Department of Biology, Iowa City, IA 52242; Developmental Studies Hybridoma Bank, University of Iowa Department of Biology, Iowa City, IA 52242), […], anti-Actin (Abcam #ab14128), and 1:10,000 antiphospho-AMPKa Rabbit (Cell Signaling, #2535). […]

C. elegans [2] = test: Hypoxia and reoxygenation with hypoxic preconditioning; assay type: in vivo, Caenorhabditis elegans; details: mtON activation during the short hypoxia (PC)
Experimental: Experiments were carried out using a hypoxic chamber (Coy Laboratory Products, 5%/95% H2/N2 gas, palladium catalyst) at 26° C. with 50-100 animals per plate. O2 was <0.01%. Hypoxic preconditioning (PC) duration was 4 h, and control animals were incubated at 26° C. in room air for the same time. 1 Hz illumination (Quantum LED, 0.02 mW/mm^2) was carried out during PC period or during the hypoxic period. Hypoxic exposure was for 18.5, 21 h after PC. Twenty-four hours after hypoxia exposure, animals that were moving or those that moved in response to a light touch to the head were scored as alive. Data from days where PC was at least 15% effective for both +ATR and −ATR were used. Animals supplemented with ATR were allowed to lay eggs onto plates with no ATR that were subsequently used for HR experiments to minimize confounding effects of ATR. ATR from the parent animal was sufficient to provide active mtON in progeny as tested by the azide toxin assay described above. […] FCCP dissolved in ethanol was deposited onto seeded NGM plates.

C. elegans [3] = test: In vivo mitochondrial membrane potential (TMRE) in aged animals; parameters: species or system Caenorhabditis elegans
Experimental: FIG. 8 is a composite of drawings showing that mtON restores lost membrane potential and increases lifespan. […] One-way ANOVA with Tukey's post hoc test for multiple comparisons, *p<0.05. Data are means±standard error of the mean. Panel B) mtON activation throughout adult life extends lifespan (n=?). […] Log rank Mantel Cox test for survival comparison, p=0.018.
Panel A) Representative images of day 4 adult animals exposed to 100 nM TMRE for 24 hours. Pharynx region of interest (ROI) is outlined in dotted white lines. All animals were expressing mtON through single-copy CRISPR/Cas9 insertion to the genome. Panel B) Quantification of TMRE fluorescence in mtON-expressing day 4 adult animals exposed to 100 nM TMRE for 24 hours. Whole-body fluorescence as well as pharynx ROIs were quantified. Control represents animals exposed to light but without ATR supplementation. Statistics are student's two tailed unpaired t tests. * p<0.001.
Scale bar, 250 μm. c, Quantification of relative TMRE fluorescence. One-way analysis of variance (ANOVA) with Tukey's multiple comparisons test, day 1 versus day 4, P=0.0001, day 1 versus day 10, P=0.0002, n=44, 18 and 30. Data are median±quartiles (dotted lines). d, Pharynx TMRE fluorescence normalized to mitochondrial mass in day 4 worms. […]

Drosophila melanogaster = test: Drosophila lifespan; assay type: in vivo; details: activation of mtON (ATR, white light)
From the text: (C) White light increases the lifespan of mtON+ATR (red) Drosophila compared to vehicle (ethanol, blue) Drosophila.

B1: mtON: fusion of the 187 N-terminal amino acids of mouse IMMT1 to the light-activated proton pump (Mac) from Leptosphaeria maculans (protein)
chain: MLRACQLSGVTVAAQSCLCGKFVLRPLRPCRRYSTSSSSGLTAGKIAGAGLLFVGGGIGGTILYAKWDSHFRESVEKTIPYSDKLFGMVLGSAPYTVPLPKKPVQSGPLKISSVSEVMKDSKLPVAQSQKTKGDTPASAASTGAAQIISAAGDTLSVPAPAVQHEDTIKTECPNTNEGKSTSETTEEPAGLIVDQFEEVLMKTSQLFPLPTATQSAQPTHVAPVPTVLPDTPIYETVGDSGSKTLWVVFVLMLIASAAFTALSWKIPVNRRLYHVITTIITLTAALSYFAMATGHGVALNKIVIRTQHDHVPDTYETVYRQVYYARYIDWAITTPLLLLDLGLLAGMSGAHIFMAIVADLIMVLTGLFAAFGSEGTPQKWGWYTIACIAYIFVVWHLVLNGGANARVKGEKLRSFFVAIGAYTLILWTAYPIVWGLADGARKIGVDGEIIAYAVLDVLAKGVFGAWLLVTHANLRESDVELNGFWANGLNREGAIRIGEDDGAR
modifications: Synthetic Complete mtON fusion protein sequence
In the case of B1, the locomotion off food (C. elegans [1]; animals off food) is reported as “suppressing their movement”, the “locomotion speed (body bends per minute)” value (C. elegans [1]; complex I mutant background (gas-1), in presence of food) is reported as “rescued the decreased locomotion” and the AMPK phosphorylation (AMPK) is reported as “prevented this phosphorylation”. For the same molecule, the “protection conferred by hypoxic preconditioning” value (C. elegans [2]) was “suppressed”, the “whole-animal measures of PMF” value (C. elegans [3]; mtON activation for 4 days into adulthood vs age-matched controls) was “significantly increased” and the “age-related decline of Δψm” value (C. elegans [3]; mtON activation, two different genetic backgrounds) was “reversed that decline”. For the same molecule, the lifespan (Drosophila melanogaster) was “extends Drosophila lifespan”.

From patent US20260167679A1, “FUSION PROTEIN TARGETING MITOCHONDRIA, METHOD OF MAKING AND USE THEREOF” (UNIVERSITY OF ROCHESTER, priority 2020, published 2026)
